B1: MsrB3 (Homo sapiens; H77G) (protein)
chain: SGSCRDKKNCKVVFSQQELRKRLTPLQYHVTQEKGTESAFEGEYTGHKDPGIYKCVVCGTPLFKSETKFDSGSGWPSFHDVINSEAITFTDDFSYGMHRVETSCSQCGAHLGHIFDDGPRPTGKRYCINSAALSFTPADSSGTAEGGSGVASPAQADKAEL
notes: MsrB3A delta(1-31), residues 32-192, endoplasmic reticulum signal removed, C-terminal His tag (LEHHHHHH), E. coli BL21(DE3), monomer
B2: MsrB3 (Homo sapiens; N160Y) (protein)
chain: SGSCRDKKNCKVVFSQQELRKRLTPLQYHVTQEKGTESAFEGEYTHHKDPGIYKCVVCGTPLFKSETKFDSGSGWPSFHDVINSEAITFTDDFSYGMHRVETSCSQCGAHLGHIFDDGPRPTGKRYCIYSAALSFTPADSSGTAEGGSGVASPAQADKAEL
notes: as for B1
B3: MsrB3 (Homo sapiens) (protein)
chain: SGSCRDKKNCKVVFSQQELRKRLTPLQYHVTQEKGTESAFEGEYTHHKDPGIYKCVVCGTPLFKSETKFDSGSGWPSFHDVINSEAITFTDDFSYGMHRVETSCSQCGAHLGHIFDDGPRPTGKRYCINSAALSFTPADSSGTAEGGSGVASPAQADKAEL
notes: as for B1
B4: MsrB3 (Homo sapiens; I113E) (protein)
chain: SGSCRDKKNCKVVFSQQELRKRLTPLQYHVTQEKGTESAFEGEYTHHKDPGIYKCVVCGTPLFKSETKFDSGSGWPSFHDVENSEAITFTDDFSYGMHRVETSCSQCGAHLGHIFDDGPRPTGKRYCINSAALSFTPADSSGTAEGGSGVASPAQADKAEL
notes: as for B1
B5: MsrB1 (Sec-containing MsrB1; Cys form MsrB1-Cys) (Mus musculus) (protein)
chain: MSFCSFFGGEVFQNHFEPGVYVCAKCSYELFSSHSKYAHSSPWPAFTETIHPDSVTKCPEKNRPEALKVSCGKCGNGLGHEFLNDGPKRGQSRFUIFSSSLKFVPKGKEAAASQGH
notes: full length, monomer; Sec forms: natural SECIS element, C-terminal His tag (five His added to own C-terminal His), from NIH 3T3 cells; C-terminally tagged form of similar activity also made
B6: MsrB1 (Sec-containing MsrB1; Cys form MsrB1-Cys) (Mus musculus; G77H) (protein)
chain: MSFCSFFGGEVFQNHFEPGVYVCAKCSYELFSSHSKYAHSSPWPAFTETIHPDSVTKCPEKNRPEALKVSCGKCGNHLGHEFLNDGPKRGQSRFUIFSSSLKFVPKGKEAAASQGH
notes: as for B5
B7: MsrB1 (Sec-containing MsrB1; Cys form MsrB1-Cys) (Mus musculus; F97N/G77H/U95C) (protein)
chain: MSFCSFFGGEVFQNHFEPGVYVCAKCSYELFSSHSKYAHSSPWPAFTETIHPDSVTKCPEKNRPEALKVSCGKCGNHLGHEFLNDGPKRGQSRFCINSSSLKFVPKGKEAAASQGH
notes: as for B5
B8: MsrB1 (Sec-containing MsrB1; Cys form MsrB1-Cys) (Mus musculus; F97N) (protein)
chain: MSFCSFFGGEVFQNHFEPGVYVCAKCSYELFSSHSKYAHSSPWPAFTETIHPDSVTKCPEKNRPEALKVSCGKCGNGLGHEFLNDGPKRGQSRFUINSSSLKFVPKGKEAAASQGH
notes: as for B5
B9: MsrB1 (Sec-containing MsrB1; Cys form MsrB1-Cys) (Mus musculus; U95C) (protein)
chain: MSFCSFFGGEVFQNHFEPGVYVCAKCSYELFSSHSKYAHSSPWPAFTETIHPDSVTKCPEKNRPEALKVSCGKCGNGLGHEFLNDGPKRGQSRFCIFSSSLKFVPKGKEAAASQGH
notes: as for B5
B10: MsrB1 (Sec-containing MsrB1; Cys form MsrB1-Cys) (Mus musculus; F97N/G77H) (protein)
chain: MSFCSFFGGEVFQNHFEPGVYVCAKCSYELFSSHSKYAHSSPWPAFTETIHPDSVTKCPEKNRPEALKVSCGKCGNHLGHEFLNDGPKRGQSRFUINSSSLKFVPKGKEAAASQGH
notes: as for B5

Experiments:
[1] = substrate: CN(C)c1ccc(N=Nc2ccc(S(=O)(=O)N[C@@H](CC[S@@+](C)[O-])C(=O)O)cc2)cc1; assay: HPLC of dabsyl-Met, Lineweaver-Burk; format: biochemical, Homo sapiens; settings: 20 mM DTT, 50 mM sodium phosphate pH 7.5, 50 mM NaCl, 37 °C, from E. coli
Excerpt: HPLC of dabsyl-Met, Lineweaver-Burk on MsrB3

[2] = substrate: CN(C)c1ccc(N=Nc2ccc(S(=O)(=O)N[C@@H](CC[S@@+](C)[O-])C(=O)O)cc2)cc1; assay: HPLC of dabsyl-Met, Lineweaver-Burk; format: biochemical, Mus musculus; settings: 20 mM DTT, 50 mM sodium phosphate pH 7.5, 50 mM NaCl, 37 °C
Excerpt: HPLC of dabsyl-Met, Lineweaver-Burk on MsrB1 (Sec-containing MsrB1; Cys form MsrB1-Cys)

Protein	Km ([1]; MsrB1 numbering) [µM]	kcat ([1]; MsrB1 numbering) [s⁻¹]	Km ([2]; Sec form from NIH 3T3) [µM]	kcat ([2]; Sec form from NIH 3T3) [s⁻¹]	also measured
B1	1000 ± 200	0.0283 ± 0.005			
B2	1200 ± 100	0.00033 ± 0.00017			
B3					Km [1]: 800 ± 50 µM; kcat [1]: 0.827 ± 0.07 s⁻¹
B4	200 ± 50	0.07 ± 0.0083			
B5			500 ± 100	0.223 ± 0.0383	
B6			800 ± 50	0.0433 ± 0.013	
B7					Km ([2]; MsrB1-Cys from E. coli): 13200 ± 2400 µM; kcat ([2]; MsrB1-Cys from E. coli): 0.023 ± 0.005 s⁻¹
B8			4300 ± 1600	0.01 ± 0.0033	
B9					Km ([2]; MsrB1-Cys from E. coli): 1300 ± 200 µM; kcat ([2]; MsrB1-Cys from E. coli): 0.00183 ± 0.0005 s⁻¹
B10			6400 ± 2100	0.04 ± 0.0083	
